# Measured values from patent US20260232826A1 (MABLINK BIOSCIENCE, published 2026).
# B1: farletuzumab (antibody, human IgG1, kappa)
# heavy: not shown
# light: DIQLTQSPSSLSASVGDRVTITCSVSSSISSNNLHWYQQKPGKAPKPWIYGTSNLASGVPSRFSGSGSGTDYTFTISSLQPEDIATYYCQQWSSYPYMYTFGQGTKVEIKRTVAAPSVFIFPPSDEQLKSGTASVVCLLNNFYPREAKVQWKVDNALQSGNSQESVTEQDSKDSTYSLSSTLTLSKADYEKHKVYACEVTHQGLSSPVTKSFNRGEC
# notes: Human IgG1, made in CHO K1 cells; also called mAb2; native farletuzumab
# B2: farletuzumab-LALA (antibody, human IgG1, kappa, L234A L235A)
# heavy: not shown
# light: B1 light
# notes: also called mAb1; Fc-silent farletuzumab-LALA
# B3: F-LALA-VA-EXA (antibody, human IgG1, kappa, L234A L235A)
# heavy: not shown
# light: B1 light
# modifications: drug-linker LNK4-S on the interchain cysteine thiol, 1 per light chain (LC-1d); drug-linker LNK4-S (Val-Ala-exatecan with polysarcosine) on interchain cysteine thiols, 3 per heavy chain (HC-3d); DAR …
# notes: Antibody-drug conjugate
# B4: mirvetuximab (antibody, human IgG1, kappa, V domains shown)
# VH: QVQLVQSGAEVVKPGASVKISCKASGYTFTGYFMNWVKQSPGQSLEWIGRIHPYDGDTFYNQKFQGKATLTVDKSSNTAHMELLSLTSEDFAVYYCTRYDGSRAMDYWGQGTTVTVSS
# VL: DIVLTQSPLSLAVSLGQPAIISCKASQSVSFAGTSLMHWYHQKPGQQPRLLIYRASNLEAGVPDRFSGSGSKTDFTLTISPVEAEDAATYYCQQSREYPYTFGGGTKLEIKR
# notes: also called native mirvetuximab
# B5: M-SORAV (antibody, human IgG1, kappa, V domains shown)
# VH: B4 VH
# VL: B4 VL
# modifications: sulfo-SPDB-DM4 stochastically conjugated to lysines; average DAR 3.35 for the whole antibody
# notes: Antibody-drug conjugate; also called ADC derivative of mirvetuximab; mirvetuximab soravtansine comparator
# B6: F-VA-EXA (antibody, human IgG1, kappa)
# heavy chain: not shown
# light chain: B1 light
# modifications: interchain cysteine thiol conjugated to drug-linker LNK4-S, DAR 8; interchain cysteine thiols conjugated to drug-linker LNK4-S (Val-Ala-exatecan, polysarcosine), DAR 8
# Target: T1, recombinant human FRα protein (Sino Biological cat #11241-H08H) (human, UniProt P15328 25-233)
# T1 construct: Bought recombinant protein; also called human folate receptor alpha; FOLR1
# Experiment: SPR Biacore T200, antibody captured, recombinant human FRα as analyte, 1:1 model; the filing attributes it to an increased kd with a similar ka
# Procedure: (§1) Surface plasmon resonance (SPR) experiments are performed on a Biacore T200 apparatus, at 25° C. Tested antibody or ADC are captured at low density (300-500 RU) on a CM5 series S sensorchip, beforehand functionalized with a Human Antibody Capture kit (Cytiva cat #BR100839). A functionalized surface/flow cell treated similarly but omitting ligand is used as reference. […] The dissociation phase is measured by injection of running buffer for 900 sec. Between duplicates, surfaces/flow cells are regenerated with 3M MgCl₂ to remove both analyte and ligand, and fresh ligand capture are done using identical conditions. The data analysis is performed using the Biacore Evaluation software after subtraction of reference surface and analyte zero-concentration signals. Data are processed and fit to a 1:1 binding model to determine the binding kinetic rate constants, kₐ (on-rate) and kd (off-rate), and the KD (equilibrium dissociation constant, also referred to as “affinity”). Mean values and standard deviations over replicates are reported.
# Surface plasmon resonance (SPR) experiments were performed on a Biacore T200 apparatus, at 25° C. Tested antibody or ADC were captured at low density (300-500 RU) on a CM5 series S sensorchip, beforehand functionalized with a Human Antibody Capture kit (Cytiva cat #BR100839). […] The dissociation phase was measured by injection of running buffer for 900 sec. […]
# T1 sequence (P15328 25-233 limits assumed): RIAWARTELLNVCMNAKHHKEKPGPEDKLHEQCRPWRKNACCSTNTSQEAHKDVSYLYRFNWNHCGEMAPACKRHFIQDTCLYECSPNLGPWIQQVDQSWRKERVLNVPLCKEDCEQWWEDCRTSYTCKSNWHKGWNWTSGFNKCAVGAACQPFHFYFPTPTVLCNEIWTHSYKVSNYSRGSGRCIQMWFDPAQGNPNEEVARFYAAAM
row,Binder,fold change of KD against mirvetuximab and mirvetuximab-based constructs
1,B1,~10 fold
2,B2,~10 fold

# Target: T2, recombinant rat FRα protein (Sino Biological cat #81073-R08H) (rat, UniProt G3V8M6 25-232)
# T2 construct: Bought; also called rat recombinant FRα protein
# Experiment: ELISA: plate coated with recombinant rat FRα (2 µg/mL), threefold dilution series of F-LALA-VA-EXA, goat anti-human IgG-HRP, A450; x axis printed as [Recombinant FRa] (M) with log10 values
# Procedure: (§2) Sandwich ELISA assays were performed using 96-well high-binding ELISA plates (Corning Inc., New York, NY, USA, Cat #3590). Plates were coated using 100 μL/well of recombinant human FRα protein (Sino Biological cat #11241-H08H); recombinant cynomolgus FRα protein (Sino Biological cat #90950-C08H); recombinant rat FRα protein (Sino Biological cat #81073-R08H) or recombinant mouse FRα protein (Sino Biological cat #50573-M08H) in PBS (pH 7.4) at 2 μg/mL and incubated overnight at 4° C. After 2 washes with PBS-T (PBS+0.05% Tween-20), the plates were blocked with 200 μL/well of incubation buffer (PBS-T+0.1% BSA) for 1 h at room temperature. The plates were washed 4 times with PBS-T, and 100 μL of a threefold dilution series of tested compound (antibody or antibody-drug conjugate) was added. Then, the plates were incubated for 2 h at room temperature in the dark. After 5 washes with PBS-T, plates were incubated 1 h at room temperature with 100 μL/well of a goat anti-human IgG (H+L) HRP conjugated antibody (Jackson Immunoresearch cat #109-035-088), previously diluted 1:250000 in incubation buffer. After 5 washes with PBS-T, TMB substrate solution (Thermo-Fisher cat #N301) was added. […] Sigmoidal fittings were performed using GraphPad Prism 9 software.
# T2 sequence (G3V8M6 entry or part of it R08H R08H limits assumed): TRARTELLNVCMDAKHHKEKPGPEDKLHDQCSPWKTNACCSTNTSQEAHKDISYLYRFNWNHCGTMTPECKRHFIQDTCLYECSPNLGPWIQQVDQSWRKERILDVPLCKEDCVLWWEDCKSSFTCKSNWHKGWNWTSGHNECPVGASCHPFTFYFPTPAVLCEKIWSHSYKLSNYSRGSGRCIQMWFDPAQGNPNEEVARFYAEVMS
row,Binder,binding result
1,B3,no binding

# Target: T1, recombinant human FRα protein (Sino …)
# Experiment: ELISA: plate coated with recombinant human FRα (2 µg/mL), threefold dilution series of F-LALA-VA-EXA, goat anti-human IgG-HRP, A450; x axis printed as [Recombinant FRa] (M) with log10 values
# Procedure: (§3) Sandwich ELISA assays are performed using 96-well high-binding ELISA plates (Corning Inc., New York, NY, USA, Cat #3590). Plates are coated using 100 µL/well of recombinant human FRα protein (Sino Biological cat #11241-H08H) in PBS (pH 7.4) at 2 μg/mL and incubated overnight at 4° C. After 2 washes with PBS-T (PBS+0.05% Tween-20), the plates are blocked with 200 μL/well of incubation buffer (PBS-T+0.1% BSA) for 1 h at room temperature. The plates are washed 4 times with PBS-T, and 100 μL of a threefold dilution series of tested compound (antibody or antibody-drug conjugate) is added. Then, the plates are incubated for 2 h at room temperature in the dark. After 5 washes with PBS-T, plates are incubated 1 h at room temperature with 100 μL/well of a goat anti-human IgG (H+L) HRP conjugated antibody (Jackson Immunoresearch cat #109-035-088), previously diluted 1:250000 in incubation buffer. After 5 washes with PBS-T, TMB substrate solution (Thermo-Fisher cat #N301) is added. […] Sigmoidal fittings were performed using GraphPad Prism 9 software.
# Sandwich ELISA assays were performed using 96-well high-binding ELISA plates (Corning Inc., New York, NY, USA, Cat #3590). […]
row,Binder,EC50 (read off the curve)
1,B3,~100 pM

# Target: T3, recombinant mouse FRα protein (Sino Biological cat #50573-M08H) (mouse, UniProt P35846 25-232)
# T3 construct: Bought; also called mouse recombinant FRα protein
# Experiment: ELISA: plate coated with recombinant mouse FRα (2 µg/mL), threefold dilution series of F-LALA-VA-EXA, goat anti-human IgG-HRP, A450; x axis printed as [Recombinant FRa] (M) with log10 values
# Procedure: as §2
# T3 sequence (P35846 25-232 limits assumed, stated change not applied): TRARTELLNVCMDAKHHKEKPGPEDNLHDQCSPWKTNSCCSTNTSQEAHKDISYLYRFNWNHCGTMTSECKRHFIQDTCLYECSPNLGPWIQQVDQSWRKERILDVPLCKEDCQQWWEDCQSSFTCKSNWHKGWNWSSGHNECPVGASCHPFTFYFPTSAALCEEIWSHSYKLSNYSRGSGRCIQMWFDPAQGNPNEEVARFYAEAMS
row,Binder,binding result
1,B3,no binding

# Target: T1, recombinant human FRα protein (Sino …)
# Experiment: SPR, Biacore T200, 25 °C: antibody or ADC captured with Human Antibody Capture kit on CM5 chip, recombinant human FRα as analyte (0.5-8 nM), single cycle kinetics, 1:1 model, mean over replicates
# Procedure: as §1
# (§4) Surface plasmon resonance (SPR) experiments were performed on a Biacore T200 apparatus, at 25° C. Tested antibody or ADC were captured at low density (300-500 RU) on a CM5 series S sensorchip, beforehand functionalized with a Human Antibody Capture kit (Cytiva cat #BR100839). A functionalized surface/flow cell treated similarly but omitting ligand was used as reference. […] The dissociation phase was measured by injection of running buffer for 900 sec. Between duplicates, surfaces/flow cells were regenerated with 3M MgCl₂ to remove both analyte and ligand, and fresh ligand capture were done using identical conditions.
Binder,koff,kon
B4,0.000244 s⁻¹,1.15e+06 M⁻¹ s⁻¹
B5,0.000327 s⁻¹,1.26e+06 M⁻¹ s⁻¹
B1,0.0361 s⁻¹,1.9e+06 M⁻¹ s⁻¹
B6,0.0306 s⁻¹,1e+06 M⁻¹ s⁻¹
B3,0.0368 s⁻¹,1.33e+06 M⁻¹ s⁻¹
B2,0.0321 s⁻¹,1.34e+06 M⁻¹ s⁻¹

# Target: T4, recombinant cynomolgus FRα protein (Sino Biological cat #90950-C08H) (cynomolgus, UniProt A0A2K5U044 25-234)
# T4 construct: Bought; also called cynomolgus recombinant FRα protein
# Experiment: ELISA: plate coated with recombinant cynomolgus FRα (2 µg/mL), threefold dilution series of F-LALA-VA-EXA, goat anti-human IgG-HRP, A450; x axis printed as [Recombinant FRa] (M) with log10 values
# Procedure: as §2
# T4 sequence (A0A2K5U044 entry or part of it C08H C08H): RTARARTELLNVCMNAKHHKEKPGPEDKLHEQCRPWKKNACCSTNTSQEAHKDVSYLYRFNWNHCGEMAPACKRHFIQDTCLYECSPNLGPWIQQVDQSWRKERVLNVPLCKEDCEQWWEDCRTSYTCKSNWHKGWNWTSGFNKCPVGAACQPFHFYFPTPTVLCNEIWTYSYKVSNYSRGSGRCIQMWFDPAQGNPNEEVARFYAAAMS
row,Binder,EC50 (read off the curve)
1,B3,~100 pM

# Target: T1, recombinant human FRα protein (Sino …)
# Experiment: SPR, Biacore T200, 25 °C: antibody or ADC captured with Human Antibody Capture kit on CM5 chip, recombinant human FRα as analyte (0.5-8 nM), single cycle kinetics, 1:1 model, KD calculated as kd/ka
# Procedure: as §1, §4
row,Binder,Kd
1,B4,211 pM
2,B5,260 pM
3,B1,25100 pM
4,B6,30900 pM
5,B3,27800 pM
6,B2,25500 pM

# Target: T1, recombinant human FRα protein (Sino …)
# Experiment: ELISA: plate coated with recombinant human FRα (2 µg/mL), threefold dilution series of the antibody or ADC, goat anti-human IgG-HRP, normalized A450; x axis printed as [Recombinant FRa] (M) with log10 values
# Procedure: as §3
# Sandwich ELISA assays were performed using 96-well high-binding ELISA plates (Corning Inc., New York, NY, USA, Cat #3590). Plates were coated using 100 μL/well of recombinant human FRα protein (Sino Biological cat #11241-H08H); recombinant cynomolgus FRα protein (Sino Biological cat #90950-C08H); recombinant rat FRα protein (Sino Biological cat #81073-R08H) or recombinant mouse FRα protein (Sino Biological cat #50573-M08H) in PBS (pH 7.4) at 2 μg/mL and incubated overnight at 4° C. After 2 washes with PBS-T (PBS+0.05% Tween-20), the plates were blocked with 200 μL/well of incubation buffer (PBS-T+0.1% BSA) for 1 h at room temperature. The plates were washed 4 times with PBS-T, and 100 μL of a threefold dilution series of tested compound (antibody or antibody-drug conjugate) was added. Then, the plates were incubated for 2 h at room temperature in the dark. After 5 washes with PBS-T, plates were incubated 1 h at room temperature with 100 μL/well of a goat anti-human IgG (H+L) HRP conjugated antibody (Jackson Immunoresearch cat #109-035-088), previously diluted 1:250000 in incubation buffer.
row,Binder,EC50 (read off the curve)
1,B4,~200 pM
2,B5,~300 pM
3,B1,~100 pM
4,B6,~100 pM
5,B3,~100 pM
6,B2,~100 pM
